Experimental findings from the supplement of paper PMC5998384 are described below.

The test system of series [1] is HeLa Kyoto. Description: solubility in G1/S (NP-40 vs SDS abundance) (log2 ratio); higher = more soluble. The note with it: cell cycle stage: G1/S.
In series [2] the test system is HeLa Kyoto. Description: melting temperature (median over replicates), in situ; higher = more thermally stable.
Series [3] has as its system HeLa Kyoto. Put plainly: thermal stability score vs G1/S (z-score of summed log2 fold changes over temperatures); higher = more thermally stable than in G1/S.
Series [4] deals with HeLa Kyoto. Description: solubility change mitosis vs G1/S (difference of NP-40 vs SDS log2 ratios) (log2 ratio difference); higher = more soluble in mitosis.
[5] abbreviates: cell cycle stage: early G1 (4.5 h after nocodazole release).
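For melting temperature (median over replicates), in situ in this document: HeLa Kyoto cells synchronized by double thymidine or nocodazole block, proteins quantified by TMT10plex mass spectrometry, three independent biological replicates.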
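For solubility change mitosis vs G1/S (difference of NP-40 vs SDS log2 ratios) in this document: synchronized HeLa Kyoto cells (double thymidine block for G1/S, nocodazole release for mitosis), protein amounts in NP-40 versus SDS lysates quantified by mass spectrometry, three biological replicates.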
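For solubility in G1/S (NP-40 vs SDS abundance) in this document: HeLa Kyoto cells arrested at G1/S by double thymidine block, proteins quantified by TMT10plex mass spectrometry in mild NP-40 versus SDS extracts, three biological replicates.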
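For thermal stability score vs G1/S (z-score of summed log2 fold changes over temperatures) in this document: synchronized HeLa Kyoto cells, proteins quantified by TMT10plex mass spectrometry, three biological replicates, mitosis taken 0.5 h after nocodazole release, G1/S directly after double thymidine block.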

Regarding “MAGTRWVLGALLRGCGCNCSSCRRTGAACLPFYSAAGSIPSGVSGRRRLLLLLGAAAAAASQTRGLQTGPVPPGRLAGPPAVATSAAAAAAASYSALRASLLPQSLAAAAAVPTRSYSQESKTTYLEDLPPPPEYELAPSKLEEEVDDVFLIRAQGLPWSCTMEDVLNFFSDCRIRNGENGIHFLLNRDGKRRGDALIEMESEQDVQKALEKHRMYMGQRYVEVYEINNEDVDALMKSLQVKSSPVVNDGVVRLRGLPYSCNEKDIVDFFAGLNIVDITFVMDYRGRRKTGEAYVQFEEPEMANQALLKHREEIGNRYIEIFPSRRNEVRTHVGSYKGKKIASFPTAKYITEPEMVFEEHEVNEDIQPMTAFESEKEIELPKEVPEKLPEAADFGTTSSLHFVHMRGLPFQANAQDIINFFAPLKPVRITMEYSSSGKATGEADVHFETHEDAVAAMLKDRSHVHHRYIELFLNSCPKGK [GRSF1]”, the “solubility in G1/S (log2)” value in the series on HeLa Kyoto [1] is 0.345. The melting temperature in the series with HeLa Kyoto [2] (cell cycle stage: G1/S) was 47.9 °C; in the series on HeLa Kyoto [2] (cell cycle stage: mitosis), 49.1 °C. The thermal stability score with HeLa Kyoto [3] (setting [5]) came to 0.523; in the series with HeLa Kyoto [3] (cell cycle stage: mitosis) it was 3.06. Moreover, the “solubility change mitosis (log2)” value with HeLa Kyoto [4] is -0.0298.

With “MAGTVVLDDVELREAQRDYLDFLDDEEDQGIYQSKVRELISDNQYRLIVNVNDLRRKNEKRANRLLNNAFEELVAFQRALKDFVASIDATYAKQYEEFYVGLEGSFGSKHVSPRTLTSCFLSCVVCVEGIVTKCSLVRPKVVRSVHYCPATKKTIERRYSDLTTLVAFPSSSVYPTKDEENNPLETEYGLSVYKDHQTITIQEMPEKAPAGQLPRSVDVILDDDLVDKAKPGDRVQVVGTYRCLPGKKGGYTSGTFRTVLIACNVKQMSKDAQPSFSAEDIAKIKKFSKTRSKDIFDQLAKSLAPSIHGHDYVKKAILCLLLGGVERDLENGSHIRGDINILLIGDPSVAKSQLLRYVLCTAPRAIPTTGRGSSGVGLTAAVTTDQETGERRLEAGAMVLADRGVVCIDEFDKMSDMDRTAIHEVMEQGRVTIAKAGIHARLNARCSVLAAANPVYGRYDQYKTPMENIGLQDSLLSRFDLLFIMLDQMDPEQDREISDHVLRMHRYRAPGEQDGDAMPLGSAVDILATDDPNFSQEDQQDTQIYEKHDNLLHGTKKKKEKMVSAAFMKKYIHVAKIIKPVLTQESATYIAEEYSRLRSQDSMSSDTARTSPVTARTLETLIRLATAHAKARMSKTVDLQDAEEAVELVQYAYFKKVLEKEKKRKKRSEDESETEDEEEKSQEDQEQKRKRRKTRQPDAKDGDSYDPYDFSDTEEEMPQVHTPKTADSQETKESQKVELSESRLKAFKVALLDVFREAHAQSIGMNRLTESINRDSEEPFSSVEIQAALSKMQDDNQVMVSEGIIFLI [MCM3]”, the “solubility in G1/S (log2)” value with HeLa Kyoto [1] came out at 0.00594. For the same sequence, the values for the melting temperature in the series on HeLa Kyoto [2] (cell cycle stage: G1/S) and in the series on HeLa Kyoto [2] (cell cycle stage: mitosis) were 51.5 °C and 51.2 °C, respectively. For the same sequence, the thermal stability score worked out at 1.52 in the series with HeLa Kyoto [3] (setting [5]) and 2.24 in the series on HeLa Kyoto [3] (cell cycle stage: mitosis). Further, the “solubility change mitosis (log2)” value in the series with HeLa Kyoto [4] was -0.0464.

With “MAGVGAGPLRAMGRQALLLLALCATGAQGLYFHIGETEKRCFIEEIPDETMVIGNYRTQMWDKQKEVFLPSTPGLGMHVEVKDPDGKVVLSRQYGSEGRFTFTSHTPGDHQICLHSNSTRMALFAGGKLRVHLDIQVGEHANNYPEIAAKDKLTELQLRARQLLDQVEQIQKEQDYQRYREERFRLTSESTNQRVLWWSIAQTVILILTGIWQMRHLKSFFEAKKLV [TMED4]”, the “solubility in G1/S (log2)” value in the series on HeLa Kyoto [1] amounted to 0.179. Moreover, the melting temperature stood at 56 °C with HeLa Kyoto [2] (cell cycle stage: G1/S) and 56.4 °C in the series with HeLa Kyoto [2] (cell cycle stage: mitosis). The thermal stability score in the series on HeLa Kyoto [3] (setting [5]) turned out to be 2.03; in the series on HeLa Kyoto [3] (cell cycle stage: mitosis) it was 0.764. In addition, in the series on HeLa Kyoto [4], the “solubility change mitosis (log2)” value was -0.0477.

For “MAGVRSLRCSRGCAGGCECGDKGKCSDSSLLGKRLSEDSSRHQLLQKWASMWSSMSEDASVADMERAQLEEEAAAAEERPLVFLCSGCRRPLGDSLSWVASQEDTNCILLRCVSCNVSVDKEQKLSKREKENGCVLETLCCAGCSLNLGYVYRCTPKNLDYKRDLFCLSVEAIESYVLGSSEKQIVSEDKELFNLESRVEIEKSLTQMEDVLKALQMKLWEAESKLSFATCKS [MIS18A]”, the “solubility in G1/S (log2)” value in the series with HeLa Kyoto [1] is -0.162. Besides, the melting temperature in the series on HeLa Kyoto [2] (cell cycle stage: G1/S) amounted to 51.3 °C; with HeLa Kyoto [2] (cell cycle stage: mitosis) it was 51.9 °C. Besides, the thermal stability score is -2.17 with HeLa Kyoto [3] (setting [5]) and -2.88 with HeLa Kyoto [3] (cell cycle stage: mitosis). The “solubility change mitosis (log2)” value in the series on HeLa Kyoto [4] came to 0.371.

In the case of “MAGVSFSGHRLELLAAYEEVIREESAADWALYTYEDGSDDLKLAASGEGGLQELSGHFENQKVMYGFCSVKDSQAALPKYVLINWVGEDVPDARKCACASHVAKVAEFFQGVDVIVNASSVEDIDAGAIGQRLSNGLARLSSPVLHRLRLREDENAEPVGTTYQKTDAAVEMKRINREQFWEQAKKEEELRKEEERKKALDERLRFEQERMEQERQEQEERERRYREREQQIEEHRRKQQTLEAEEAKRRLKEQSIFGDHRDEEEETHMKKSESEVEEAAAIIAQRPDNPREFFKQQERVASASAGSCDVPSPFNHRPGSHLDSHRRMAPTPIPTRSPSDSSTASTPVAEQIERALDEVTSSQPPPLPPPPPPAQETQEPSPILDSEETRAAAPQAWAGPMEEPPQAQAPPRGPGSPAEDLMFMESAEQAVLAAPVEPATADATEIHDAADTIETDTATADTTVANNVPPAATSLIDLWPGNGEGASTLQGEPRAPTPPSGTEVTLAEVPLLDEVAPEPLLPAGEGCATLLNFDELPEPPATFCDPEEVEGESLAAPQTPTLPSALEELEQEQEPEPHLLTNGETTQKEGTQASEGYFSQSQEEEFAQSEELCAKAPPPVFYNKPPEIDITCWDADPVPEEEEGFEGGD [DBN1]”, in the series with HeLa Kyoto [1], the “solubility in G1/S (log2)” value is -1.2. Also, the melting temperature with HeLa Kyoto [2] (cell cycle stage: G1/S) came out at 52.3 °C; with HeLa Kyoto [2] (cell cycle stage: mitosis) it was 52.1 °C. Besides, the values for the thermal stability score in the series on HeLa Kyoto [3] (setting [5]) and in the series on HeLa Kyoto [3] (cell cycle stage: mitosis) were -3.76 and -0.742, respectively. For the same sequence, the “solubility change mitosis (log2)” value with HeLa Kyoto [4] stood at 0.101.

Consider “MAHRPKRTFRQRAADSSDSDGAEESPAEPGAPRELPVPGSAEEEPPSGGGRAQVAGLPHRVRGPRGRGRVWASSRRATKAAPRADEGSESRTLDVSTDEEDKIHHSSESKDDQGLSSDSSSSLGEKELSSTVKIPDAAFIQAARRKRELARAQDDYISLDVQHTSSISGMKRESEDDPESEPDDHEKRIPFTLRPQTLRQRMAEESISRNEETSEESQEDEKQDTWEQQQMRKAVKIIEERDIDLSCGNGSSKVKKFDTSISFPPVNLEIIKKQLNTRLTLLQETHRSHLREYEKYVQDVKSSKSTIQNLESSSNQALNCKFYKSMKIYVENLIDCLNEKIINIQEIESSMHALLLKQAMTFMKRRQDELKHESTYLQQLSRKDETSTSGNFSVDEKTQWILEEIESRRTKRRQARVLSGNCNHQEGTSSDDELPSAEMIDFQKSQGDILQKQKKVFEEVQDDFCNIQNILLKFQQWREKFPDSYYEAFISLCIPKLLNPLIRVQLIDWNPLKLESTGLKEMPWFKSVEEFMDSSVEDSKKESSSDKKVLSAIINKTIIPRLTDFVEFLWDPLSTSQTTSLITHCRVILEEHSTCENEVSKSRQDLLKSIVSRMKKAVEDDVFIPLYPKSAVENKTSPHSKFQERQFWSGLKLFRNILLWNGLLTDDTLQELGLGKLLNRYLIIALLNATPGPDVVKKCNQVAACLPEKWFENSAMRTSIPQLENFIQFLLQSAHKLSRSEFRDEVEEIILILVKIKALNQAESFIGEHHLDHLKSLIKED [GCFC2]”, for which the “solubility in G1/S (log2)” value with HeLa Kyoto [1] amounted to 0.109. In addition, the melting temperature in the series with HeLa Kyoto [2] (cell cycle stage: G1/S) amounted to 51.2 °C; with HeLa Kyoto [2] (cell cycle stage: mitosis) it was 51.7 °C. Further, the thermal stability score in the series with HeLa Kyoto [3] (setting [5]) is -2.18; in the series on HeLa Kyoto [3] (cell cycle stage: mitosis), -1.62. Also, in the series on HeLa Kyoto [4], the “solubility change mitosis (log2)” value is -0.0501.

For “MAKMEVKTSLLDNMIGVGDMVLLEPLNEETFINNLKKRFDHSEIYTYIGSVVISVNPYRSLPIYSPEKVEEYRNRNFYELSPHIFALSDEAYRSLRDQDKDQCILITGESGAGKTEASKLVMSYVAAVCGKGAEVNQVKEQLLQSNPVLEAFGNAKTVRNDNSSRFGKYMDIEFDFKGDPLGGVISNYLLEKSRVVKQPRGERNFHVFYQLLSGASEELLNKLKLERDFSRYNYLSLDSAKVNGVDDAANFRTVRNAMQIVGFMDHEAESVLAVVAAVLKLGNIEFKPESRVNGLDESKIKDKNELKEICELTGIDQSVLERAFSFRTVEAKQEKVSTTLNVAQAYYARDALAKNLYSRLFSWLVNRINESIKAQTKVRKKVMGVLDIYGFEIFEDNSFEQFIINYCNEKLQQIFIELTLKEEQEEYIREDIEWTHIDYFNNAIICDLIENNTNGILAMLDEECLRPGTVTDETFLEKLNQVCATHQHFESRMSKCSRFLNDTSLPHSCFRIQHYAGKVLYQVEGFVDKNNDLLYRDLSQAMWKASHALIKSLFPEGNPAKINLKRPPTAGSQFKASVATLMKNLQTKNPNYIRCIKPNDKKAAHIFNEALVCHQIRYLGLLENVRVRRAGYAFRQAYEPCLERYKMLCKQTWPHWKGPARSGVEVLFNELEIPVEEYSFGRSKIFIRNPRTLFKLEDLRKQRLEDLATLIQKIYRGWKCRTHFLLMKKSQIVIAAWYRRYAQQKRYQQTKSSALVIQSYIRGWKARKILRELKHQKRCKEAVTTIAAYWHGTQARRELRRLKEEARNKHAIAVIWAYWLGSKARRELKRLKEEARRKHAVAVIWAYWLGLKVRREYRKFFRANAGKKIYEFTLQRIVQKYFLEMKNKMPSLSPIDKNWPSRPYLFLDSTHKELKRIFHLWRCKKYRDQFTDQQKLIYEEKLEASELFKDKKALYPSSVGQPFQGAYLEINKNPKYKKLKDAIEEKIIIAEVVNKINRANGKSTSRIFLLTNNNLLLADQKSGQIKSEVPLVDVTKVSMSSQNDGFFAVHLKEGSEAASKGDFLFSSDHLIEMATKLYRTTLSQTKQKLNIEISDEFLVQFRQDKVCVKFIQGNQKNGSVPTCKRKNNRLLEVAVP [MYO1B]”, the “solubility in G1/S (log2)” value with HeLa Kyoto [1] was -0.528. Also, the melting temperature with HeLa Kyoto [2] (cell cycle stage: G1/S) worked out at 50.5 °C; in the series on HeLa Kyoto [2] (cell cycle stage: mitosis) it was 50.1 °C. Further, the thermal stability score was -0.836 in the series on HeLa Kyoto [3] (setting [5]) and -0.507 with HeLa Kyoto [3] (cell cycle stage: mitosis). In the series with HeLa Kyoto [4], the “solubility change mitosis (log2)” value was -0.0354.
